Data on five substances can be found in the supplement of paper PMC5998384.

Data set [1] deals with HeLa Kyoto. As to the kind of experiment: solubility in G1/S (NP-40 vs SDS abundance) (log2 ratio); higher = more soluble. As to conditions: cell cycle stage: G1/S.
The test system of data set [2] is HeLa Kyoto. Description: solubility change mitosis vs G1/S (difference of NP-40 vs SDS log2 ratios) (log2 ratio difference); higher = more soluble in mitosis.
Data set [3] relates to HeLa Kyoto. As to the kind of experiment: thermal stability score vs G1/S (z-score of summed log2 fold changes over temperatures); higher = more thermally stable than in G1/S.
Data set [4] has as its system HeLa Kyoto. As to the kind of experiment: melting temperature (median over replicates), in situ; higher = more thermally stable.
Where [5] appears, read: cell cycle stage: early G1 (4.5 h after nocodazole release).
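Throughout, for melting temperature (median over replicates), in situ: HeLa Kyoto cells synchronized by double thymidine or nocodazole block, proteins quantified by TMT10plex mass spectrometry, three independent biological replicates.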
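Throughout, for solubility change mitosis vs G1/S (difference of NP-40 vs SDS log2 ratios): synchronized HeLa Kyoto cells (double thymidine block for G1/S, nocodazole release for mitosis), protein amounts in NP-40 versus SDS lysates quantified by mass spectrometry, three biological replicates.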
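Throughout, for solubility in G1/S (NP-40 vs SDS abundance): HeLa Kyoto cells arrested at G1/S by double thymidine block, proteins quantified by TMT10plex mass spectrometry in mild NP-40 versus SDS extracts, three biological replicates.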
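Throughout, for thermal stability score vs G1/S (z-score of summed log2 fold changes over temperatures): synchronized HeLa Kyoto cells, proteins quantified by TMT10plex mass spectrometry, three biological replicates, mitosis taken 0.5 h after nocodazole release, G1/S directly after double thymidine block.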

Consider “MTECFLPPTSSPSEHRRVEHGSGLTRTPSSEEISPTKFPGLYRTGEPSPPHDILHEPPDVVSDDEKDHGKKKGKFKKKEKRTEGYAAFQEDSSGDEAESPSKMKRSKGIHVFKKPSFSKKKEKDFKIKEKPKEEKHKEEKHKEEKHKEKKSKDLTAADVVKQWKEKKKKKKPIQEPEVPQIDVPNLKPIFGIPLADAVERTMMYDGIRLPAVFRECIDYVEKYGMKCEGIYRVSGIKSKVDELKAAYDREESTNLEDYEPNTVASLLKQYLRDLPENLLTKELMPRFEEACGRTTETEKVQEFQRLLKELPECNYLLISWLIVHMDHVIAKELETKMNIQNISIVLSPTVQISNRVLYVFFTHVQELFGNVVLKQVMKPLRWSNMATMPTLPETQAGIKEEIRRQEFLLNCLHRDLQGGIKDLSKEERLWEVQRILTALKRKLREAKRQECETKIAQEIASLSKEDVSKEEMNENEEVINILLAQENEILTEQEELLAMEQFLRRQIASEKEEIERLRAEIAEIQSRQQHGRSETEEYSSESESESEDEEELQIILEDLQRQNEELEIKNNHLNQAIHEEREAIIELRVQLRLLQMQRAKAEQQAQEDEEPEWRGGAVQPPRDGVLEPKAAKEQPKAGKEPAKPSPSRDRKETSI [RALBP1]”, for which the “solubility in G1/S (log2)” value with HeLa Kyoto [1] is 0.0284. Also, the “solubility change mitosis (log2)” value with HeLa Kyoto [2] came out at 0.12. Moreover, the thermal stability score with HeLa Kyoto [3] (setting [5]) came to 0.156; in the data set on HeLa Kyoto [3] (cell cycle stage: mitosis) it was 0.441. In addition, the melting temperature with HeLa Kyoto [4] (cell cycle stage: G1/S) was determined as 47.8 °C; in the data set with HeLa Kyoto [4] (cell cycle stage: mitosis) it was 50.4 °C.
With “MEVPPPAPRSFLCRALCLFPRVFAAEAVTADSEVLEERQKRLPYVPEPYYPESGWDRLRELFGKDEQQRISKDLANICKTAATAGIIGWVYGGIPAFIHAKQQYIEQSQAEIYHNRFDAVQSAHRAATRGFIRYGWRWGWRTAVFVTIFNTVNTSLNVYRNKDALSHFVIAGAVTGSLFRINVGLRGLVAGGIIGALLGTPVGGLLMAFQKYSGETVQERKQKDRKALHELKLEEWKGRLQVTEHLPEKIESSLQEDEPENDAKKIEALLNLPRNPSVIDKQDKD [TIMMDC1]”, the “solubility in G1/S (log2)” value in the data set with HeLa Kyoto [1] is -0.03. In the data set on HeLa Kyoto [2], the “solubility change mitosis (log2)” value was found to be 0.01. In addition, the thermal stability score with HeLa Kyoto [3] (setting [5]) was -2.95; in the data set on HeLa Kyoto [3] (cell cycle stage: mitosis) it was -2.24. In addition, the melting temperature in the data set on HeLa Kyoto [4] (cell cycle stage: G1/S) came to 55.6 °C; in the data set with HeLa Kyoto [4] (cell cycle stage: mitosis) it was 55.2 °C.
Consider “MASPGCLLCVLGLLLCGAASLELSRPHGDTAKKPIIGILMQKCRNKVMKNYGRYYIAASYVKYLESAGARVVPVRLDLTEKDYEILFKSINGILFPGGSVDLRRSDYAKVAKIFYNLSIQSFDDGDYFPVWGTCLGFEELSLLISGECLLTATDTVDVAMPLNFTGGQLHSRMFQNFPTELLLSLAVEPLTANFHKWSLSVKNFTMNEKLKKFFNVLTTNTDGKIEFISTMEGYKYPVYGVQWHPEKAPYEWKNLDGISHAPNAVKTAFYLAEFFVNEARKNNHHFKSESEEEKALIYQFSPIYTGNISSFQQCYIFD [GGH]”, for which the “solubility in G1/S (log2)” value in the data set with HeLa Kyoto [1] worked out at 0.326. Also, in the data set with HeLa Kyoto [2], the “solubility change mitosis (log2)” value was -0.0381. Moreover, the thermal stability score with HeLa Kyoto [3] (setting [5]) is 0.878; in the data set with HeLa Kyoto [3] (cell cycle stage: mitosis) it was -0.77. The melting temperature is 60.5 °C with HeLa Kyoto [4] (cell cycle stage: G1/S) and 60 °C in the data set with HeLa Kyoto [4] (cell cycle stage: mitosis).
With DNAJB4, the “solubility in G1/S (log2)” value in the data set with HeLa Kyoto [1] worked out at 0.0979. Moreover, the “solubility change mitosis (log2)” value with HeLa Kyoto [2] is 0.0771. For the same substance, the results for the thermal stability score in the data set on HeLa Kyoto [3] (setting [5]) and in the data set with HeLa Kyoto [3] (cell cycle stage: mitosis) were 1.4 and 0.454, respectively. Further, the melting temperature with HeLa Kyoto [4] (cell cycle stage: G1/S) was determined as 49.3 °C; in the data set on HeLa Kyoto [4] (cell cycle stage: mitosis), 49.5 °C.
Take “MVIRVYIASSSGSTAIKKKQQDVLGFLEANKIGFEEKDIAANEENRKWMRENVPENSRPATGYPLPPQIFNESQYRGDYDAFFEARENNAVYAFLGLTAPPGSKEAEVQAKQQA [SH3BGRL]”: the “solubility in G1/S (log2)” value with HeLa Kyoto [1] was 0.375. Further, the “solubility change mitosis (log2)” value in the data set on HeLa Kyoto [2] was -0.0943. In addition, the thermal stability score with HeLa Kyoto [3] (setting [5]) is -0.605; in the data set on HeLa Kyoto [3] (cell cycle stage: mitosis), -2.76. For the same substance, the melting temperature in the data set on HeLa Kyoto [4] (cell cycle stage: G1/S) worked out at 53.2 °C; with HeLa Kyoto [4] (cell cycle stage: mitosis), 53 °C.
